Earlier results on one substance are cited in article PMC5338744.

The target in this data set is VEGFR2 (KDR) (Homo sapiens) (UniProt P35968).
Chain of UniProt P35968 (P35968 20-1356): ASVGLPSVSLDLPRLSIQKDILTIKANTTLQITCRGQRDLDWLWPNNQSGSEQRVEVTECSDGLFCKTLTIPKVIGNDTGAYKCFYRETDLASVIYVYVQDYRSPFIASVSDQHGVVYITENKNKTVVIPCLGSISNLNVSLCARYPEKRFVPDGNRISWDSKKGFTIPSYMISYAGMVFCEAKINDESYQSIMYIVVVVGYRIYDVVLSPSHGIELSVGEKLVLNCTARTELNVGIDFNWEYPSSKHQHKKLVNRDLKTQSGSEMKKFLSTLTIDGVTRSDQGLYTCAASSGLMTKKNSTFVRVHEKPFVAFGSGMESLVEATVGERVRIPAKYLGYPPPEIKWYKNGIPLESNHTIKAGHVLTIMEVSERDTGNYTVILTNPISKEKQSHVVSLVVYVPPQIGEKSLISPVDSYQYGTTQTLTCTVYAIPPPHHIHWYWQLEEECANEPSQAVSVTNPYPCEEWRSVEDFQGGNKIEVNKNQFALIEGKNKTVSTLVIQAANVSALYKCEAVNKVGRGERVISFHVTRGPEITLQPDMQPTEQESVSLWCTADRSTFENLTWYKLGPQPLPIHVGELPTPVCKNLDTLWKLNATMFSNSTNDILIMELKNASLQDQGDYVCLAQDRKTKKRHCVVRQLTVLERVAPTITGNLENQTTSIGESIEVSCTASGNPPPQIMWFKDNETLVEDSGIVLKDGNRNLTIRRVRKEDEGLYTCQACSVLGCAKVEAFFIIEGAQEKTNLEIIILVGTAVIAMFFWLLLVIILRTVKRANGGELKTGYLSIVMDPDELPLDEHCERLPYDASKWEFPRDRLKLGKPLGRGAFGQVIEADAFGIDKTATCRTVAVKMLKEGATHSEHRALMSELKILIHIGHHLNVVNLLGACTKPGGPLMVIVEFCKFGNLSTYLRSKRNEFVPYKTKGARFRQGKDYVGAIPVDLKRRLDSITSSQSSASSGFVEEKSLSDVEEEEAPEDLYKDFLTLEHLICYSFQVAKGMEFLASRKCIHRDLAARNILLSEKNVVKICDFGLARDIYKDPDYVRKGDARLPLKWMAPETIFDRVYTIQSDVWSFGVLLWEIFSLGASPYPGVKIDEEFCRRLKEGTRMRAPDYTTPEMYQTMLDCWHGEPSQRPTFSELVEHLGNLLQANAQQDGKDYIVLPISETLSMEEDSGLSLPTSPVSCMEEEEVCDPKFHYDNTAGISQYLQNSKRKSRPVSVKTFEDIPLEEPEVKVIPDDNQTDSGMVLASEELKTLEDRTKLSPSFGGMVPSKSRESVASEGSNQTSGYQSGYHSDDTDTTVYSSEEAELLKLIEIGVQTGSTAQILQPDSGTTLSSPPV

The Kd is the equilibrium constant for the complex coming apart. Consider VEGF (from UniProt P15692), for which the Kd was 0.76 nM.
